In the supplement of paper PMC6379048:

Legend:
Test in all cases: Kd (EC50 corrected by depletion factor)
RPL7 = RPL7 (UniProt P18124)
In short: (§1)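 Free RNA oligos (0 nM to 30 μM) competed for 1 h at 4°C in HEK293-FT lysate (2.5 mg protein/well) before a 30 min, 4°C pulldown with the same oligos on NHS-Sepharose beads. Bound proteins were quantified by label-free LC-MS/MS and normalised to the control. Kd was found by multiplying EC50, from a four-parameter log-logistic fit, by a protein-dependent depletion factor.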

PIP5K1A = PIP5K1A (UniProt Q99755)
Sequence of PIP5K1A (Q99755 whole entry): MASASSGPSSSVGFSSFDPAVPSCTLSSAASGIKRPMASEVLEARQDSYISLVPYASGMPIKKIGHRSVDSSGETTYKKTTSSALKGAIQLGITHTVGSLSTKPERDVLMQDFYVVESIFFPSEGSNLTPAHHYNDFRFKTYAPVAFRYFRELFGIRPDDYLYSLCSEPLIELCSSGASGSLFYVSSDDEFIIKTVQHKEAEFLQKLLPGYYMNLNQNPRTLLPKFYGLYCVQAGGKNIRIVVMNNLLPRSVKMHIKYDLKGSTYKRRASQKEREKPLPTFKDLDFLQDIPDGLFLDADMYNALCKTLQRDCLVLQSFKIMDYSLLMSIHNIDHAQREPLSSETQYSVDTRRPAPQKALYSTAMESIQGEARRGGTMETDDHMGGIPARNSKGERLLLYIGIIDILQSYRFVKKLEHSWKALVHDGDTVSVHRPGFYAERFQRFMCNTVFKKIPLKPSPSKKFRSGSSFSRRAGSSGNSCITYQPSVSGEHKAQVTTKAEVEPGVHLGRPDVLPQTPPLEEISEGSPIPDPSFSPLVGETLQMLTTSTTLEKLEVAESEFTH
In short: as §1

SF3B5 = target: T1, SF3B5 (UniProt Q9BWJ5)
T1 sequence: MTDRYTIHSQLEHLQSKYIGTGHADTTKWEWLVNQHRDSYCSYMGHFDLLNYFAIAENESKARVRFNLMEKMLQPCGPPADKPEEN
In short: as §1

CPSF7 = target: T2, CPSF7 (UniProt Q8N684)
T2 sequence: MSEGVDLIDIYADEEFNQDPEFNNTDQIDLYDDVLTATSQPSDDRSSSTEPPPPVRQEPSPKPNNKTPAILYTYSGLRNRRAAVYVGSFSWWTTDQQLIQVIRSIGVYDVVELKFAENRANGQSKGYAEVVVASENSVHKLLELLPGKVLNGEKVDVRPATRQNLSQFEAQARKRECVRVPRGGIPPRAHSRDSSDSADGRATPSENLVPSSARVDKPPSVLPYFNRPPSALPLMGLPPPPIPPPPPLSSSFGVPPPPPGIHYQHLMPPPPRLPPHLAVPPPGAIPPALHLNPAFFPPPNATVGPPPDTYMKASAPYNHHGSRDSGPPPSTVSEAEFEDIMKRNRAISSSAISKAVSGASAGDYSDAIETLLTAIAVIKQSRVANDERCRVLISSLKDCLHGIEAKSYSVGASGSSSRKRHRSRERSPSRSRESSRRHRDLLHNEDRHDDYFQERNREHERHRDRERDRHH
In short: as §1

CPSF4 = CPSF4 (UniProt O95639)
Sequence of CPSF4 (O95639 whole entry): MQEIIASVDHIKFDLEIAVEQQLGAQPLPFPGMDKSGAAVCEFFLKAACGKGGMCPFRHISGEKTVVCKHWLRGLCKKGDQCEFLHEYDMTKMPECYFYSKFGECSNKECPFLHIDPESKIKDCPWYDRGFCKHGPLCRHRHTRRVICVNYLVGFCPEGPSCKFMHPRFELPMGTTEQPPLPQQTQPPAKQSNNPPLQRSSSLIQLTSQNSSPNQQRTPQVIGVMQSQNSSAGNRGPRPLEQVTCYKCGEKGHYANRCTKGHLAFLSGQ
In short: as §1

MRPL12 = MRPL12 (UniProt P52815)
In short: as §1

SRSF7 = target: T3, SRSF7 (UniProt Q16629)
T3 sequence: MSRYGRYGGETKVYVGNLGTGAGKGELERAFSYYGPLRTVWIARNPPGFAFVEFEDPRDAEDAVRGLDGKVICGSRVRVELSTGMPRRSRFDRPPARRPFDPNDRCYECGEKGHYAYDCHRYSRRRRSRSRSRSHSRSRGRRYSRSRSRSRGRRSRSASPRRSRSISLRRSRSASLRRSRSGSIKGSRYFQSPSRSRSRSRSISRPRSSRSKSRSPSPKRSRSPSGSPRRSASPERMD
In short: as §1

RPS13 = RPS13 (UniProt P62277)
In short: as §1

ICT1 = ICT1 (UniProt Q14197)
In short: as §1

TTC37 = TTC37 (UniProt Q6PGP7)
Sequence of TTC37 (Q6PGP7 whole entry): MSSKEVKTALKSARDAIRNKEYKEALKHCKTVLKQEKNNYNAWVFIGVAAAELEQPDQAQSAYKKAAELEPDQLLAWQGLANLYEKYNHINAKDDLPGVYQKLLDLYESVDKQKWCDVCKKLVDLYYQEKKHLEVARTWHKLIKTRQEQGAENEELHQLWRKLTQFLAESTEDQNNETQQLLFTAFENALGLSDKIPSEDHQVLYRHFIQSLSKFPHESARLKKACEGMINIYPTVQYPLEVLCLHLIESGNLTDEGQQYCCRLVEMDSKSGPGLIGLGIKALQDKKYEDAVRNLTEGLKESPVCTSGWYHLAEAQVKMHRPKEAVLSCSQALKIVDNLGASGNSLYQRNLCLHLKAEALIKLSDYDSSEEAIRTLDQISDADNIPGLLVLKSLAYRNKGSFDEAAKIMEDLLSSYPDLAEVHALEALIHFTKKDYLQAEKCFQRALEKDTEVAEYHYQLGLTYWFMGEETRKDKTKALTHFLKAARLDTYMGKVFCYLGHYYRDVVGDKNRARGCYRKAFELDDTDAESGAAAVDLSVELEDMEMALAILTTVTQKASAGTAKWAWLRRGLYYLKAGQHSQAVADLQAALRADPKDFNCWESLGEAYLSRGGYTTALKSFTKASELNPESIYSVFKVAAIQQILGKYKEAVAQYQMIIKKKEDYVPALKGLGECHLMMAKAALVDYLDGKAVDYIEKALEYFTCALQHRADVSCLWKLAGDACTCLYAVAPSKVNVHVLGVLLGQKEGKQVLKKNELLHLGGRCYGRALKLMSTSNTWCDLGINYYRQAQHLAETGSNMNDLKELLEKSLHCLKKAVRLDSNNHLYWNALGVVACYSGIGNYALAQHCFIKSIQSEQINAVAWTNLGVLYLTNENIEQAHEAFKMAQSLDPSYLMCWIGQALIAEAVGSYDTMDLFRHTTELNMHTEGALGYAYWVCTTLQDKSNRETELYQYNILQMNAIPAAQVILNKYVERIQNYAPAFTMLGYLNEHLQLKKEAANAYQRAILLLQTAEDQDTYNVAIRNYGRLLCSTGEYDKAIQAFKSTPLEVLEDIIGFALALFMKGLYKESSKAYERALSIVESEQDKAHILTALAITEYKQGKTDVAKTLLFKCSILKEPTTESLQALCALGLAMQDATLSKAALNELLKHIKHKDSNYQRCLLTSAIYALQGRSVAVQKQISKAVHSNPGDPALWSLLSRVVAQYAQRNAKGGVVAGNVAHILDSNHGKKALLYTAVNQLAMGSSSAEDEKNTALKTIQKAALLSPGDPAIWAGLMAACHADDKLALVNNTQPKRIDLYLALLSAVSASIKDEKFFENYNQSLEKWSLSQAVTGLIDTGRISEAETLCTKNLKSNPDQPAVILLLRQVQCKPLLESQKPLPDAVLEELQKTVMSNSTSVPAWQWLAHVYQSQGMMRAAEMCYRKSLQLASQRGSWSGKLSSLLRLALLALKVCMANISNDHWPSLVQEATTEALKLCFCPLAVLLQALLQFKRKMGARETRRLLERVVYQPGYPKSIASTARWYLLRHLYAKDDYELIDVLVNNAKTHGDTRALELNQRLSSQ
In short: as §1

HNRNPA2B1 = HNRNPA2B1 (UniProt P22626)
Sequence of HNRNPA2B1 (P22626 whole entry): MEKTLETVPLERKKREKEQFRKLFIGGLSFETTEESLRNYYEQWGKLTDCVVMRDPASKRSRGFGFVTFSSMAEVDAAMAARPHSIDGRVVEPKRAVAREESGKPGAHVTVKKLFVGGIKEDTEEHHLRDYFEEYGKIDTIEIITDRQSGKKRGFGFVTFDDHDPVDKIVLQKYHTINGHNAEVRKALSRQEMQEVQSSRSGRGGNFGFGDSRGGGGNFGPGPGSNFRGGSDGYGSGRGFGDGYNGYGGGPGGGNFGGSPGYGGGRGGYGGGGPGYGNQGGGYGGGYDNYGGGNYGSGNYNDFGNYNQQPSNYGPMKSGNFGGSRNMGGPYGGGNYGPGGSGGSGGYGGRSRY
In short: as §1

ATIC = ATIC (UniProt P31939)
Sequence of ATIC (P31939 whole entry, looked up): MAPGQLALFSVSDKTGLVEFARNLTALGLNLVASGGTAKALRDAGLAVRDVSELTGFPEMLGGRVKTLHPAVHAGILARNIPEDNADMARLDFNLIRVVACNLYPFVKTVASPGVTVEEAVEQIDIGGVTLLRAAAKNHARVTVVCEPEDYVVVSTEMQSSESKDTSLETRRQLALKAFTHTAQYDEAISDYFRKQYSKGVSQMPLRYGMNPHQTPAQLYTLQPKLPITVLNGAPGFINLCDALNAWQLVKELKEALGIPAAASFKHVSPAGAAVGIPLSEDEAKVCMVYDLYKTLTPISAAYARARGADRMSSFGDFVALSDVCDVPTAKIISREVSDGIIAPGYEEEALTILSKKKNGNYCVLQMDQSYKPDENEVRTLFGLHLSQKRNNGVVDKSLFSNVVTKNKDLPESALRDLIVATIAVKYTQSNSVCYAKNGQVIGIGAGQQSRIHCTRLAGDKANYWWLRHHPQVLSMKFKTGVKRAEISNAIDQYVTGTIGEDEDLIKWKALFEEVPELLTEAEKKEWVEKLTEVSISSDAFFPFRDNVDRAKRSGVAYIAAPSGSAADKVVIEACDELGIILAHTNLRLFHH
In short: as §1

MRPS9 = MRPS9 (UniProt P82933)
In short: as §1

CSTF1 = target: T4, CSTF1 (UniProt Q05048)
T4 sequence: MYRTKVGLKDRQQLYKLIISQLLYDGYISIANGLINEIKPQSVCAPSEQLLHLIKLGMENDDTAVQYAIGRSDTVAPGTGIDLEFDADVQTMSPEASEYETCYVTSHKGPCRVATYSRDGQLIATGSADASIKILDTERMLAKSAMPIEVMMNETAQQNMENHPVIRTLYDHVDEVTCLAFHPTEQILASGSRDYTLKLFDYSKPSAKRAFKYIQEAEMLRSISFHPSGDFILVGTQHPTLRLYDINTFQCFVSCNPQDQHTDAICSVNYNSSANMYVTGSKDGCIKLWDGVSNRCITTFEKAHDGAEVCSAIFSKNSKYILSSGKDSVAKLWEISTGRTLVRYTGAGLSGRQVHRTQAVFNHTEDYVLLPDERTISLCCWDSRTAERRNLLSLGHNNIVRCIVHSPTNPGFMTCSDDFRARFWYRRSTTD
In short: as §1

MRPS26 = MRPS26 (UniProt Q9BYN8)
In short: as §1

Sequence AAUAAA has a Kd (RPL7) of 3.96 µM, a Kd (PIP5K1A) of 467 nM and a Kd (SF3B5) of 766 nM. It also gave a Kd (CPSF7) of 2100 nM and a Kd (CPSF4) of 5.95 nM.
In the case of CUGUCCU, the Kd (MRPL12) is reported as 43.7 nM, the Kd (SRSF7) is reported as 1000 nM and the Kd (RPS13) is reported as 39.9 nM. For the same sequence, the Kd (ICT1) was 48.1 nM.
For UAUUUAU, the Kd (TTC37) was 577 nM, the Kd (HNRNPA2B1) was 4.9 µM and the Kd (ATIC) was 523 nM. It also gave a Kd (MRPS9) of 27.1 nM, a Kd (CSTF1) of 322 nM and a Kd (MRPS26) of 15.9 nM.
